This is an account of results in paper doi:10.1101/2021.12.01.470822.

The target of the assay is ABD1 of PLS2 (human) (UniProt P13796). The assay is described as follows: fluorescence polarisation. A general note: In fluorescence polarisation assays a small probe gives low polarisation when free and higher when bound to something large.
Chain of ABD1 of PLS2 (human) (P13796 98-375): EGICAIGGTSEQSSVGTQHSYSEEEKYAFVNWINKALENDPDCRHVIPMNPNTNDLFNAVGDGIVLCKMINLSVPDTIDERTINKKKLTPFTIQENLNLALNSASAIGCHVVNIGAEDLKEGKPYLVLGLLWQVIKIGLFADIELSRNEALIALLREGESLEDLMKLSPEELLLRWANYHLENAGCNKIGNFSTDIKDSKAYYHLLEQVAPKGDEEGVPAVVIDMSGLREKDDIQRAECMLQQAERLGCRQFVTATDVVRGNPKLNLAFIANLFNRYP

As for “ABD2 of PLS2 with S406E (from UniProt P13796 1-627) (domain or fragment)”, the Kd (commonly a measure of binding affinity in units of concentration) turned out to be 2000 nM.
